Measured values: US20210380660A1 (OREGON HEALTH AND SCIENCE UNIVERSITY, published 2021)

T1: recombinant human CD74 (C27S) (human, UniProt P04233 1-216)
T1 chain: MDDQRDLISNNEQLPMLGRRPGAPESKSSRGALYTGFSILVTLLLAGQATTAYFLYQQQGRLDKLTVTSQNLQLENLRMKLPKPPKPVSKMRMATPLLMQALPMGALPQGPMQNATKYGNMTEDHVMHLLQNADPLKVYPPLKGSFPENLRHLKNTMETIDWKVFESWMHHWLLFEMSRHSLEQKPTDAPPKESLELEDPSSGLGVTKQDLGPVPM

T2: mouse CD74 (mouse, UniProt P04441-2 1-215, limits assumed)
T2 construct: Native protein pulled down from splenocyte lysate; also called mCD74; immunoprecipitated mouse CD74
T2 sequence (looked up): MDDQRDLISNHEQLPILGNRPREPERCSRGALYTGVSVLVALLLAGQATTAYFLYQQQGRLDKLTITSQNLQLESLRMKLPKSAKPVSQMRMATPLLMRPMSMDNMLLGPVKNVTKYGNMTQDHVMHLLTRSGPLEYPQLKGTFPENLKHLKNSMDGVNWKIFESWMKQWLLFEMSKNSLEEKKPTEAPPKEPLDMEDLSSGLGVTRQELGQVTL


What was measured:
[1] = target: T1, recombinant human CD74 (C27S); assay: competition ELISA against MIF for rhCD74
[2] = target: T1, recombinant human CD74 (C27S); assay: direct binding ELISA on rhCD74 (legend of FIG. 6A)
[3] = target: T1, recombinant human CD74 (C27S); assay: competition ELISA: MIF coated, rhCD74 with serially diluted construct, bound rhCD74 detected
[4] = target: T1, recombinant human CD74 (C27S); assay: direct binding ELISA, rhCD74 (C27S) coated, construct detected with anti-MOG antibody, one-site fit
mouse CD74 = target: T2, mouse CD74; assay: competition with FITC-labelled P2 peptide on immunoprecipitated mouse CD74, gel densitometry, one-site fit
Experimental: For competition experiments, ELISA plates were coated with MIF at room temperature at a concentration of 0.5 μg/ml in TBS. Plates were then blocked overnight with 5% BSA in TBS and 0.0125% T20 followed by the addition of a competitive mix containing rhCD74 with serially diluted DRα1 constructs prepared in 5% BSA/TBS plus 0.0125% T20 for 1.5 hours at 25° C. Bound rhCD74 was detected with a monoclonal antibody that specifically recognizes human CD74 in a region away from the putative MIF/D-DT binding site. Absorbance at 450 nm was determined and data were analyzed with Prism, the parameters were calculated with the competition equation included in the software. For competition between DRα1-hMOG-35-55 and P2 peptide (see next section), mouse CD74 was immunoprecipitated from DR*1501 Tg mouse splenocytes and a competition experiment was set. 2.5 μl of P2 peptide were used with increasing concentrations of DRα1-hMOG-35-55 protein. Bound peptide was eluted from the immunoprecipitation with 2% SDS and analyzed in a 16.5% PAG Tris/Tricine. The gel was scanned for FITC and fluorescence was quantified by densitometry. P2 fluorescence vs. DRα1 competitor was plotted and data analyzed with Prism. The relative density values were fit to a One-binding site equation. […]

| IC50 [1] | Kd [2] | IC50 [3] | Kd [4] | Kd (mouse CD74) | Binder |
| --- | --- | --- | --- | --- | --- |
| 280 nM | 89 nM | 298 nM | 91.1 nM | – | DRhQ (other, Made in E. coli; also called DRα1-hMOG-35-55 with glutamine substitution; L50Q) MEVGWYRPPFSRVVHLYRNGKGGGGSLVPRGSGGGGIKEEHVIIQAEFYQNPDQSGEFMFDFDGDEIFHVDMAKKETVWRLEEFGRFASFEAQGALANIAVDKANLEIMTKRSNYTPITN |
| 1600 nM | 650 nM | 1640 nM | 702 nM | 750 nM | DRα1-hMOG-35-55 (other, also called DRα1-human(h)MOG-35-55; DRα1 with human MOG-35-55 peptide) MEVGWYRPPFSRVVHLYRNGKGGGGSLVPRGSGGGGIKEEHVIIQAEFYLNPDQSGEFMFDFDGDEIFHVDMAKKETVWRLEEFGRFASFEAQGALANIAVDKANLEIMTKRSNYTPITN |
| – | – | 828 nM | – | – | DRmQ (other, also called DRα1-mMOG-35-55 with glutamine substitution) MEVGWYRSPFSRVVHLYRNGKGGGGSLVPRGSGGGGIKEEHVIIQAEFYQNPDQSGEFMFDFDGDEIFHVDMAKKETVWRLEEFGRFASFEAQGALANIAVDKANLEIMTKRSNYTPITN |
| – | – | 937 nM | – | – | DRα1-mMOG-35-55 (other, also called DRα1 with mouse MOG-35-55 peptide) MEVGWYRSPFSRVVHLYRNGKGGGGSLVPRGSGGGGIKEEHVIIQAEFYLNPDQSGEFMFDFDGDEIFHVDMAKKETVWRLEEFGRFASFEAQGALANIAVDKANLEIMTKRSNYTPITN |
